Measured values reported in US20110097300A1 (SUNNYBROOK HEALTH SCIENCES CENTRE, published 2011).
Where no end group is shown, it is not given here. Maleimide‑PEO2‑Biotin = EZ-link-PEO-maleimide-biotin, biotinylated PEG-maleimide moiety (29 angstrom)

Target: T1, Tie 2 of EaHy926 endothelial cells (UniProt Q02763 23-1124, limits assumed)
T1 construct: whole, on cells; also called Tek
Experiment: avidin agarose pull down from EaHy926 whole cell lysate, anti-Tie 2 immunoblot
Description: In this example, the ability of Vasculotide to bind the Tie 2 receptor, despite the engineered modifications, was tested using an in vitro pull down assay. In the pull down assay, a cell lysate of EaHy926 endothelial cells (which express high levels of Tie 2) was prepared in Phospho Lipase Cγ lysis buffer (50 mM Hepes buffer pH 7.5, 150 mM NaCl, 10% glycerol, 1% Triton X-100, 1.5 mM MgCl₂, 1.0 mM EGTA, 10 mM NaPPi, […], 2 mM Na₃VO₄, 1× aprotinin, 1× leupeptin and 1× PMSF). The whole cell lysate was mixed with either unclustered biotinylated Vasculotide or biotinylated irrelevant peptide. The biotinylated peptides then were isolated with avidin agarose and subsequently tested for their ability to precipitate Tie 2 via standard immunoblot analysis using anti-Tie 2 antibody.

T1 sequence (Q02763 23-1124 limits assumed): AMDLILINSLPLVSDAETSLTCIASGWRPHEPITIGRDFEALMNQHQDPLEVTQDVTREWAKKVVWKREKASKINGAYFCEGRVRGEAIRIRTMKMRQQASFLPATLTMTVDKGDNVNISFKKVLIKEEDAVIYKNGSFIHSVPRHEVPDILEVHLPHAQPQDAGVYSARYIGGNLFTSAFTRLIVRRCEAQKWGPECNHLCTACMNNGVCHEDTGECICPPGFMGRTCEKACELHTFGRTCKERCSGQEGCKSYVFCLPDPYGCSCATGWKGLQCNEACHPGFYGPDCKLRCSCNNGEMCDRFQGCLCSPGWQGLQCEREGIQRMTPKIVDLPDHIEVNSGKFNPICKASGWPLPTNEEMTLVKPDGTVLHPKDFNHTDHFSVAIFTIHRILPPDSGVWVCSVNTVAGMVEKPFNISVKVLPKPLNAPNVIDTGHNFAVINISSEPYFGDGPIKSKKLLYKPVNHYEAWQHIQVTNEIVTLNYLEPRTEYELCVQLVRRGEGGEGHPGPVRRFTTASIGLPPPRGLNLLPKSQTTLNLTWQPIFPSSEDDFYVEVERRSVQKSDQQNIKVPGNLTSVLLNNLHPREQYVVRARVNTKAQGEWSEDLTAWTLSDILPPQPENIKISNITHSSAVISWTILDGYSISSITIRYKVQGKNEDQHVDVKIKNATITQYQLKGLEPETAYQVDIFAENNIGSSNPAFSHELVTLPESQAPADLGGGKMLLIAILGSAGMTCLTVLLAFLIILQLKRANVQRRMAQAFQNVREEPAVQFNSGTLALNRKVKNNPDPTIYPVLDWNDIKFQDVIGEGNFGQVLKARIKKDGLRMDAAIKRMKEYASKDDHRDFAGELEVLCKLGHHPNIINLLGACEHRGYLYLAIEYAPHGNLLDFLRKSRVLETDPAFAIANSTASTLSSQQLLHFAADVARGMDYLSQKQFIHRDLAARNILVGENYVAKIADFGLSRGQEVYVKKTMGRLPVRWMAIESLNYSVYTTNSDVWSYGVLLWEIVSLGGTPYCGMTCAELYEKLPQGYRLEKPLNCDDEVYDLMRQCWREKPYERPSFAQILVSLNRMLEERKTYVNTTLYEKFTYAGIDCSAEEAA

B1: unclustered Vasculotide (biotinylated T7 peptide-PEG monomer) (peptide)
peptide: C(Maleimide‑PEO2‑Biotin)HHHRHSF-OH
notes: L-amino acids; monomer, not clustered with avidin; also called T7-biotin; non-clustered Vasculotide
B1: binds.
